We go through 1 substance from publication PMC6060171.

By stoichiometry N is commonly meant a count of units in the complex or per binding partner.

This assay concerns the target AcrIIA6 (anti-CRISPR protein of Streptococcus thermophilus virulent phage D1811, product of gene D1811_026) (Streptococcus thermophilus phage D1811). Kind of assay: SEC; gel filtration profile of purified AcrIIA6; size exclusion chromatography in 20 mM Hepes pH 7.5, 150 mM NaCl.

In turn, “AcrIIA6 (anti-CRISPR protein of Streptococcus thermophilus virulent phage D1811, product of gene D1811_026) (natural protein)” gave a stoichiometry N of 2.
